# Experimental data from a protein production outcome set (Wang et al. 2014).
# Experiment: label from the status in PepcDB records
row,Sequence,protein production
1,VRHTVKIDKDTLLQDYGFHISESLPLTVVAVTAGGSAHGKLFPGDQILQMNNEPAEDLSWERAVDILREAEDSLSITVVRCTS,not failed
2,MIESRRFVSDVMITFIASLVNIIISFPISVVIGRYLGVEDLGAYRLVFSIYGLSLLFANAGIPAAVIKQISEIKEDPKSTVKVISSSFFTSSLLGIFFLIFYLLFAETLSNIFGTPELADLIRIISLSFPFSVTGSTMLATLNGFRDMKKHATAILIQSVLMLFFTILSITFGYGVNGAVGASVISSIGYCVYLLRYLGKYIKIINFSDAVHYSKSMITFGLQTVVANAVNLINFQADTIMVGYFLTKTDVGFYSVAVLLAKLLWLIPDSIQKITYPLISEHYNNSGTEYINRAIETIMKYTMCISIVIGSGMIFYGEGIITSIYGASFIESVNPYYILIVGTMIFSIVKCVNSLFASIGRVDLFAKIPTYSAAVNILLNLVLIPIYHINGAAIATSTSLLIYVLVMIYYMKKLVNIHINVIWYSKAIFLFAMLIIINYILSLFTPFNSSGILTVSLGCLLLWIYILEPSDRVFFLSLVTKLKSLSLN,failed
3,MILLVPILIITLMYFMFENVPHRPGTPSGFNTACLVLLGLFPLFVMFVITAITMQRERASGTLERILTTPLRRLDLLAGYGTAFSIAAAAQATLACIVAFWFLGFDTAGSPVWVFAIAIVNAVLGVGLGLLCSAFARTEFQAVQFIPLVMVPQLLLAGIIVPRALMPTWLEWISNVMPASYALEALQQVGAHPELTGIAVRDVVVVLSFAVASLCLAAVTLRRRTS,failed
4,MMTSAAPKPVRENIARAKAYLRRDDLPRSMAAMATALRELKGTRLIGQARFETEVNIHEYVTELNRHQAVRRFFEAQGVLSTPFVTYAKGAETELAERLESIRAGFEKDVAAHAAQHAAKVAHRKEALLRSGQEKLDAGDAPRGRSFLKRAADEFGHEAGVLTDIGQRLQRAGLLFEAAEMFENAIAAFPKDGHAHAGVVAAYMGLQEYPKAEMAYTRALKQFGTHPKTLVNMARMYLAWRKRDEAWTHIQRALQLAPGDAEAKALLAEIEGRGSRR,failed
5,MDPLALALLPGIGPKRLLEVLKAEDPLGFLRERFPEAWRHLPEAEAQAERERGRAEALGVRLLGLWEEGFPEGLRALPQPPTHLYLKGELPPEREAVALVGTRRASPWALAFARRLARELAEAGLWVVSGLARGIDREAHLGALEAGGRTLGVLGSALDRVYPPENRPLAQRMDLLSEFPFGTGPKPEFFPRRNRLIAGLCRAVVVVEAPLDSGALITARHALELGKEVLAVPGRPTDERSLGANRLIQDGAYPVLSAEDVLSYLGMSARPKPLPGLSPEEEALYALLQEKKEALPEALAMALGIPPERVLSLLTLLELKGLARALPGGRYGPG,failed
6,MGEYYHATVNGVVEYGAFVDLSEHVSGLIHESTYSGDPDLAVDDDVIVHLSAVRDNGDLSFEFVDPEEYRTEQRSLEHHHHHH,failed
7,MCNGKVVNKGDDCQSLTFRRRSGWAMIDRSAVMEKTMDSRIQDVLDIYHAMIETEHNSPRELPPGGRDGGQDQRLRAVGQATGQFINILAKSLKSPTILELGTSFGYSGIWLAEAARASGGRLITMEMHDYKSAYARDMAVKAGLAEHVEFKVGDAVQMIGALSSGIDFVLVDLWKDLYVPCLEAFYPKLNPGAIIVADNMLRPGGDDLKRYSDAVRAKPWISSVLLPVGSGLEVSRFD,failed
8,MDEIKIEKLKKLDKKALNELIDVYMSGYEGLEEYGGEGRDYARNYIKWCWKKASDGFFVAKVGDKIVGFIVCDKDWFSKYEGRIVGAIHEFVVDKKFQGKGIGRKLLITCLDFLGKYNDTIELWVGEKNYGAMNLYEKFGFKKVGKSGIWVRMIKRQNL,not failed
9,KITRLTTYRLPPRWMFLKVETDEGVTGWGEPVIEGRARTVEAAVHELSDYLIGQDPSRINDLWQTMYRAGFYRGGPILMSAIAGIDQALWDIKGKVLGVPVYELLGGLVRDKMRTYSWVGGDRPADVIAGMKALQAGGFDHFKLNGCEEMGIIDTSRAVDAAVARVAEIRSAFGNTVEFGLDFHGRVSAPMAKVLIKELEPYRPLFIEEPVLAEQAETYARLAAHTHLPIAAGERMFSRFDFKRVLEAGGVSILQPDLSHAGGITECVKIAAMAEAYDVALAPHCPLGPIALAACLHVDFVSWNATLQEQSMGIHYNKGAELLDYVRNKADFALEGGYIRPPRLPGLGVDIDEALVIERSKEAPDWRNPVWRHADGSVAEW,not failed
10,MASDSGNQGTLCTLEFAVQMTCQSCVDAVRKSLQGVAGVQDVEVHLEDQMVLVHTTLPSQEVQALLEGTGRQAVLKGMGSGQLQN,not failed
11,MTDESDSTAHVSCIIPVYNDSVGIKNTLRSVVGQEYHGYDVYVVDNGSTDGSRRRVRNCAAESDDIQLLVEDEVQGSYAARKTGVQNAESDVLAFLDADETVDEDWLETALGAMQEQDVDYLGCNVELTCPEDTLVGRYNARTGFPVEEYLEDQNYAPTCALLVRRKVFEDVGPFDARLISGGDREFGDRVHDAGYEQGYAENATVYHPARTSLESLAKKNFRVGRGFCQKQRYYPERYGKPGIPPTPSGPSGGDDGDEPDASLTRLAFTLLSIAMLACRGVGYYYEFVVGEENDDIPAPTSLEHHHHHH,failed
12,MWPSCMARFPSDGQPGYRFVPSPGSGAGEEEMRPLVSVVCACFNISKYLDEAIASIYAQGYPNLELIVVDDGSTDDTYERLAMLRERHGFQLYRQANRGVSDALNHGLRHARGEFVMTPDLDDILLPGALDTRVDYLLAHPEVGCVGGFNICIDSAGNEVARDGFSEGCVERWGFDAALAETLVVMPLTALYRMEAMKRADFFDPSIRVQDFQITLRIAAQGYEIHRLPAYMGRYRRHGSGLSGRYKLNYEADMQAIEPYRAHPNYRRARQLILNKALKKAVVQDGRYAWQLFRSVPLRAWDRVTLKRFWRFLRYLPVLGLKGGTGVEGR,failed
13,MREAGDAIARLRTLRDAAGRLVASRASLLRRAPVGLVVAAVVIPLVGCDTGPNFWFHKRASACPRPQVAQGVSGQFNQQQQEIRALRQGGFRGDFFAQLELARRYEGQRAVDKNLEDPVEAAVWYAMALANSGGYAPIAAYERRGKESRAVSRFDDCRAFERRSAYGALDRLLSRMSTEEREKVRNRVIYILSTQSADGFRTLARMHDGYFGPFGEPSDNLQAIEAYGKPSQPGAPAALDLFRRNDVDAYLYNYLAVQTGDVSAYVMLKDFERSSPQRASYGSFVETKAKRWIPPYEFYPPESPDSGVPHSDEADLSGEARESALYRIAELPFVHVGESLAYLRVIPTAVLDEKMLSVTEVQTLQSMIGRPNTGRLAPIEKVRAVQYAAVNGSSKAQLVLAVMYSEGVGVPRDYARAYHWYEEAERQGSAEAKYAMSTFFSLGLQGVADQDRAKAVVYQIDGALAGFKPSAWRLQQLLAQVSRPPRAAGERPQPRPIYGADDYRAAPRADDRDPRQDQPGSDRGGRPYNEGNY,failed
14,MAHIEKVPQRPGFSWRYRRIDEVEKEYDLHFHDDVFELVIHRHFTGSLHIGHHELEVTHNQMLLIAPGVPHSIHSTLVESKCETHVIWFKREWIANLMFYCAELRKLDPLLKAANKGVVFSERTAQHVVDLLHELMTFPAMEQLSRFLHVLSLIAHDEGAKTLMTHSYLSMSEHELQERERVASVNAYLEQHFATKVTLADLANYLSLSESAVTRLFQKHFKEPFSQRLMKLRINHAADLLQSTSLPIGIVFERVGYRNQALFNRHFKTYKGLTPRDYRQHYQQRIQP,failed
15,MLKQRVITAMWLLPLMLGMLFYAPQWLWAAFCGLIALIALWEYARMGGLCKIKTNHYLAATLVFGVVAYAGGWMLPNLVWYVVLAFWLAVMPLWLRFKWRLNGGWQVYAVGWLLVMPFWFALVSLRPHPDDALPLLAVMGLVWVADICAYFSGKAFGKHKIAPAISPGKSWEGAIGGAVCVAVYMTAVRSAGWLAFDTGWFDTVLIGLVLTVVSVCGDLLESWLKRAAGIKDSSKLLPGHGGVFDRTDSLIAVISVYAAMMSVLN,failed
16,MVWLWCVLHLLVAALGTWGLRRYALHRRLLDHPGERRSHVVATPRGGGMAIVAAILLGCVAACALWPTSRLTVCWFAAGLVAVAGVGWWDDHRPLSARLRFSIHLAASVALGALVWHGTGSVWDGVLTAAASVMLINVWNFMDGINGLASTQAALAALGFSLVAPVGWSWAGLAVAAACLGFVPFNFPRARIFMGDGGSGALGYVLAALLALNVAGGQVSWWISWLPLTAFLVDAGFTLLARMLSGQRWWEPHAQHVYQRLARRLETHVPVTGVYFAFSLIAVCLYLLIRHDPFWLQVSGALVWGMGATAIWHFLRDGLRNS,failed
